Consider 20 molecules from publication doi:10.1101/2024.12.12.628227 (bioRxiv, 2024).

First the molecules themselves.
B1: parental scFv-osmY fusion protein (tilvestamab scFv) (scFv, V domains shown)
VH: EVQLVESGGGLVQPGGSLRLSCAASGYSFTDFYINWVRQAPGKGLEWVARIFPGGDNTYYNEKFKGRFTLSADTSKSTAYLQMNSLRAEDTAVYYCARRGLYYAMDYWGQGTLVTVSS
VL: DIQMTQSPSSLSASVGDRVTITCRSSQSLVHSNGIPYLHWYQQKPGKAPKLLIYRVSNRFSGVPSRFSGSGSGTDFTLTISSLQPEDFATYYCSQGTHVPPTFGQGTKVEIK
B2: tilvestamab scFv-osmY L102Y (scFv, V domains shown)
VH: B1 VH with L101Y
VL: B1 VL
B3: tilvestamab scFv-osmY F33A (scFv, V domains shown)
VH: B1 VH with F32A
VL: B1 VL
B4: tilvestamab scFv-osmY T31A (scFv, V domains shown)
VH: B1 VH with T30A
VL: B1 VL
B5: tilvestamab scFv-osmY G233S (scFv, V domains shown)
VH: B1 VH
VL: B1 VL with G96S
B6: tilvestamab scFv-osmY L102A (scFv, V domains shown)
VH: B1 VH with L101A
VL: B1 VL
B7: tilvestamab scFv-osmY M106A (scFv, V domains shown)
VH: B1 VH with M105A
VL: B1 VL
B8: tilvestamab scFv-osmY Y108A (scFv, V domains shown)
VH: B1 VH with Y107A
VL: B1 VL
B9: tilvestamab scFv-osmY Y103A (scFv, V domains shown)
VH: B1 VH with Y102A
VL: B1 VL
B10: tilvestamab scFv-osmY L102T (scFv, V domains shown)
VH: B1 VH with L101T
VL: B1 VL
B11: tilvestamab scFv-osmY F33T (scFv, V domains shown)
VH: B1 VH with F32T
VL: B1 VL
B12: tilvestamab scFv-osmY F33S (scFv, V domains shown)
VH: B1 VH with F32S
VL: B1 VL
B13: tilvestamab scFv-osmY I35A (scFv, V domains shown)
VH: B1 VH with I34A
VL: B1 VL
B14: tilvestamab scFv-osmY D32A (scFv, V domains shown)
VH: B1 VH with D31A
VL: B1 VL
B15: tilvestamab scFv-osmY L102S (scFv, V domains shown)
VH: B1 VH with L101S
VL: B1 VL
B16: tilvestamab scFv-osmY Y103S (scFv, V domains shown)
VH: B1 VH with Y102S
VL: B1 VL
B17: tilvestamab scFv-osmY P238A (scFv, V domains shown)
VH: B1 VH
VL: B1 VL with P101A
B18: tilvestamab scFv-osmY F33Y (scFv, V domains shown)
VH: B1 VH with F32Y
VL: B1 VL
B19: tilvestamab scFv-osmY G233A (scFv, V domains shown)
VH: B1 VH
VL: B1 VL with G96A
B20: tilvestamab scFv-osmY G101A (scFv, V domains shown)
VH: B1 VH with G100A
VL: B1 VL

Positions count from the first letter of the chain named. Names may count otherwise.

The experiment deals with human AXL Ig1 domain fused to human Fc (Homo sapiens, UniProt P30530). Nature of the experiment: BLI. In general terms: Biolayer interferometry detects binding as a change in optical thickness at a sensor tip.
Turning to B1, the binding result is “binds”. On to B2, for which the binding result is “binds”. As to B3, the binding result is “binds”. As for B4, the binding result is given as “binds”.

With B5, the binding result is “binds”. B6: the binding result is “binds”.

Consider B7, for which the binding result was “binds”.

Take B8: the binding result is reported as “binds”. Consider B9, for which the binding result is “binds”.

Turning to B10, the binding result is on record as “binds”.

Turning to B11, the binding result was “binds”. Consider B12, for which the binding result was “binds”. B13: the binding result is listed as “binds”. As to B14, the binding result is “binds”. The result for B15 reads “binds”; that for B16, “binds”.

In the case of B17, the binding result is “binds”.

Take B18: the binding result is recorded as “binds”. Consider B19, for which the binding result is on record as “binds”. Take B20: the binding result is recorded as “binds”.
